In patent US20140220033A1, “Administration of an Anti-Activin-A Compound to a Subject” (Santa Maria Biotherapeutics, Inc., priority 2013, published 2014):

What was measured:
osteopontin = experiment: Western blot of osteopontin in ovarian tumors of inh-KO mice; assay type: in vivo, mouse; conditions: FIG. 8D
Protocol: (§1) 12-week-old female and 8-week-old male inh-KO mice with fully established ovarian or testicular tumors received a single injection of PBS or sActRIIB (30 mg/kg, SC). As a control, age-matched wild-type littermates received a single injection of PBS. Ovarian and testicular organ weights were determined by necropsy 14 days after the injection.
(§2) Protein extracts were prepared from cell cultures or tissues in T-PER tissue protein extraction reagent (Pierce) containing a mixture of protease inhibitors (Roche). A pool of 50 μg total protein for each group containing equal amounts of protein extract isolated from individual animals was separated by NuPAGE 4-12% Bis-Tris gel (Invitrogen) and transferred to PVDF. The membranes were probed with primary antibodies against total Smad2, p-Smad2 or E-cadherin (1:1000; Cell Signaling), endoglin, osteopontin (1:500; R&D Systems), IGFBP-1, IGFBP-2 (1:500; Abcam) followed by HRP-conjugated secondary antibody (1:2000; Cell Signaling). The membranes were stripped and re-probed with antibody against α-tubulin (1:1000; Cell Signaling).

VEGF [1] = experiment: Serum VEGF in inh-KO mice (ELISA); assay type: in vivo, mouse; conditions: inh-KO mice with advanced ovarian and testicular tumors; single dose; FIG. 8A
Protocol: as §1
(§3) The serum VEGF levels in inh-KO mice were measured by using immunoassay kit (R&D Systems), and the levels of human VEGF and Ang-1 in cell line culture medium were quantified using ELISA kits purchased from Invitrogen (VEGF) and R&D Systems (Ang-1), by following the manufacturers' recommended protocols.

[2] = system: ovarian tumors in inh-KO mice; experiment: Light microscopy (H&E) of ovaries of inh-KO mice; assay type: in vivo, mouse; conditions: female inh-KO mice; FIG. 7A
Protocol: as §1
Testes and ovaries from inh-KO mice were fixed with Zinc-formalin. Tissue sections were subjected to H&E staining and then examined with a Nikon Eclipse 90i microscope.

[3] = system: testicular tumors in inh-KO mice; experiment: Testicular tumor mass in inh-KO mice (necropsy); assay type: in vivo, mouse; conditions: 8-week-old male inh-KO mice; single dose 30 mg/kg SC; necropsy 14 days after injection; FIG. 4A, 4B
Protocol: as §1

endoglin = experiment: Western blot of endoglin in ovarian tumors of inh-KO mice; assay type: in vivo, mouse; conditions: FIG. 8D
Protocol: as §1, §2

CD31 = CD31 immunostaining in TOV-21G xenograft tumor sections; assay type: in vivo, mouse; conditions: FIG. 15B
Protocol: (§4) 5×10^6 TOV-21G ovarian cancer cells were implanted subcutaneously into individual female athymic nu/nu mice (Harlan). Treatment was initiated at day 12 after tumor implantation, when the average tumor volume reached approximately 150 mm^3. The mice received PBS, sActRIIB (30 mg/kg, SC, 1×/week) or activin-A antibody (30 mg/kg, SC, 2×/week). In a separate chemotherapy combination experiment, the mice were treated with PBS, sActRIIB (10 mg/kg, SC, 1×/week), 5-FU (50 mg/kg, IP, 3 cycles, 4 daily injections per cycle) or sActRIIB and 5-FU combination at the same doses above.
(§5) Zinc-formalin fixed paraffin tumor tissue sections of 4 μm in thickness were prepared. The sections were subjected to antigen retrieval by microwave 3 min in Unmask solution (Vector H-3300) followed by incubation in 10 μg/ml Proteinase-K for 20 min and in 1% H2O2 in dH2O for 10 min at room temperature. The sections were further incubated in 0.1% Tween-20 in PBS for 3 min to permeabilize the cell membrane and in goat serum for 30 min to block non-specific binding. The sections were then incubated at room temperature with specific primary antibody for 3 hours followed by incubation in biotinylated or fluorescently labeled secondary antibody. […] The immunostained tissue sections were analyzed and photographed using a Nikon Eclipse 90i microscope equipped with DS-Ril camera. […]

IGFBP-1 = experiment: Western blot of IGFBP-1 in ovarian tumors of inh-KO mice; assay type: in vivo, mouse; conditions: FIG. 8D
Protocol: as §1, §2

VEGF [4] = experiment: VEGF release into culture medium (ELISA); assay type: cell-based, human; conditions: TOV21G, MRC-5, CCD-Lu and TPH-1 cells treated with activin-A, without or with sActRIIB; FIG. 17A
Protocol: as §3

Ang-1 [5] = experiment: Ang-1 release into culture medium (ELISA); assay type: cell-based, human; conditions: MRC-5 and CCD-Lu cells treated with activin-A, without or with sActRIIB; FIG. 17B
Protocol: as §3

VEGF [6] = experiment: VEGF immunostaining in gonadal tumor sections of inh-KO mice; assay type: in vivo, mouse; conditions: ovarian and testicular tumors of inh-KO mice; FIG. 8B
Protocol: as §1
(§6) Zinc-formalin fixed paraffin tumor tissue sections of 4 μm in thickness were prepared. The sections were subjected to antigen retrieval by microwave 3 min in Unmask solution (Vector H-3300) followed by incubation in 10 μg/ml Proteinase-K for 20 min and in 1% H2O2 in dH2O for 10 min at room temperature. The sections were further incubated in 0.1% Tween-20 in PBS for 3 min to permeabilize the cell membrane and in goat serum for 30 min to block non-specific binding. The sections were then incubated at room temperature with specific primary antibody for 3 hours followed by incubation in biotinylated or fluorescently labeled secondary antibody. Substrate developed in Vector SG kit (SK-4700) or DAB and nuclear-counterstained in Vector Fast Red (H-3403) or in hematoxylin. The immunostained tissue sections were analyzed and photographed using a Nikon Eclipse 90i microscope equipped with DS-Ril camera. […]

TOV-21G cells = experiment: In vitro proliferation assay of TOV-21G cells (IncuCyte); assay type: cell-based, human; conditions: increasing concentrations; FIG. 14
Protocol: In vitro growth rates of TOV-21G cancer cells were analyzed by using a real-time live cell imaging system (IncuCyte) following the manufacturer's recommended protocol.

[7] = system: DNA fragmentation (apoptosis) in TOV-21G tumors; experiment: TUNEL assay in TOV-21G xenograft tumor sections; assay type: in vivo, mouse; conditions: FIG. 15C
Protocol: as §4
Cell apoptosis in TOV-21G tumors was analyzed by measuring the amounts of fragmented DNA in the tumor sections using the DeadEnd Fluorometric TUNEL System following the manufacturer's recommended protocols (Promega, G3250). The fluorescein-12-dUTP-labeled DNA was visualized by Nikon fluorescence microscopy.

[8] = system: Smad2 signaling (phospho-Smad2); experiment: Western blot of phospho-Smad2 in tumors of inh-KO mice; assay type: in vivo, mouse; conditions: increase over WT controls, FIG. 5B
Protocol: as §1, §2

Ang-1 mRNA = Ang-1 mRNA in cell cultures (real-time RT-PCR); assay type: cell-based, human, bovine; conditions: BAEC, MRC-5 and CCD-Lu cultures treated with recombinant activin-A, without or with sActRIIB; FIG. 16B
VEGF [9] = experiment: VEGF immunostaining in TOV-21G xenograft tumor sections; assay type: in vivo, mouse; conditions: treated vs untreated sections (strong immunostaining); FIG. 15A
Protocol: as §4, §5

Ang-1 [10] = experiment: Ang-1 immunostaining in gonadal tumor sections of inh-KO mice; assay type: in vivo, mouse; conditions: ovarian and testicular tumors of inh-KO mice; FIG. 8B
Protocol: as §1, §6

IGFPB-2 = experiment: Western blot of IGFBP-2 in ovarian tumors of inh-KO mice; assay type: in vivo, mouse; conditions: FIG. 8D
Protocol: as §1, §2

B1: sActRIIB: extracellular domain of human activin type-2B receptor fused to IgG2 Fc, expressed in CHO cells; sequence in the 26th table (protein)
chain: ETRWCIYYNANWELERTNQGLERCEGEQDKRLHCYASWRNSSGTIELVKKGCWLDDFNCYDRQECVATEENPQVYFCCCEGNFCNERFTHLPEAGGPEVTYEPPPTAPTGGGGSVECPPCPAPPVAGPSVFLFPPKPKDTLMISRTPEVTCVVVDVSHEDPEVQFNWYVDGVEVHNAKTKPREEQFNSTFRVVSVLTVVHQDWLNGKEYKCKVSNKGLPAPIEKTISKTKGQPREPQVYTLPPSREEMTKNQVSLTCLVKGFYPSDIAVEWESNGQPENNYKTTPPMLDSDGSFFLYSKLTVDKSRWQQGNVFSCSVMHEALHNHYTQKSLSLSPGK
modifications: left off: a dimerising Fc or GST
osteopontin induction (Western blot) (osteopontin): abolished completely
circulating VEGF levels (VEGF [1]): rapidly lowered the elevated VEGF to WT control levels
ovarian morphology (light microscopy) [2]: the ovaries were normal in size and contained many recognizable follicles, minimal tumor cell invasion and few hemorrhagic lesions
testicular tumor mass [3]: dramatic regression of testicular tumor masses to the WT control levels
endoglin induction (Western blot) (endoglin): abolished completely
CD31 immunostaining (newly formed microvessels) in TOV-21G tumor sections (CD31): lack of such new microvessels
IGFBP-1 induction (Western blot) (IGFBP-1): abolished completely
release of VEGF into the culture medium (VEGF [4]): blocked completely
release of Ang-1 into the culture medium (Ang-1 [5]): blocked completely
VEGF immunoreactivity in tumor sections (VEGF [6]): completely abolished the VEGF and Ang-1 inductions
TOV-21G cell proliferation in vitro (TOV-21G cells): no direct effect
DNA fragmentation (TUNEL) in TOV-21G tumors [7]: profound increases
phospho-Smad2 in tumor tissues (Western blot) [8]: eliminated this increase in phospho-Smad2
levels of Ang-1 mRNA (Ang-1 mRNA): prevented this induction
VEGF immunostaining in TOV-21G tumor sections (VEGF [9]): virtually none
Ang-1 immunoreactivity in tumor sections (Ang-1 [10]): completely abolished the VEGF and Ang-1 inductions
IGFPB-2 induction (Western blot) (IGFPB-2): abolished completely
